Laboratory results reported in publication PMC2873897 (Nature structural & molecular biology, 2010).

Key:
[1] = target: C-cadherin ectodomain (Xenopus laevis) (UniProt P33148); experiment: AUC; details: cited from earlier work
[2] = target: E cadherin EC1-2 MR extension (mouse); experiment: AUC
[3] = target: E cadherin EC1-2 W2A (mouse); experiment: AUC
[4] = target: E cadherin EC1-2 wild-type (WT) (mouse); experiment: AUC
[5] = target: E-cadherin ectodomain (Mus musculus) (UniProt P09803); experiment: AUC; details: cited from earlier work
[6] = target: T cadherin EC1-2 G extension (mouse) (UniProt Q9WTR5); experiment: AUC
[7] = target: T cadherin EC1-2 I2A (mouse); experiment: AUC
[8] = target: T cadherin EC1-2 R14E/D140K (charge reversal rescue mutant) (mouse); experiment: AUC
[9] = target: T-cadherin EC1-2 wild-type (mouse) (UniProt Q9WTR5); experiment: SPR
AUC [10] = target: the molecule itself; experiment: AUC
AUC [11] = target: the molecule itself; experiment: AUC; remark: listed apart in the source

In the case of “C-cadherin ectodomain (from UniProt P33148)”, the Kd [1] is listed as 64 µM.

Work on “E cadherin EC1-2 MR extension (domain or fragment)” yielded a Kd [2] of 258 µM.

For “E cadherin EC1-2 W2A (domain or fragment)”, the Kd [3] was 916 µM.

Molecule “E cadherin EC1-2 wild-type (WT) (domain or fragment)” has a Kd [4] of 98.6 µM.

For “E-cadherin ectodomain (from UniProt P09803)”, the Kd [5] is listed as 80 µM.

In the case of “T cadherin EC1-2 G extension (from UniProt Q9WTR5 140-355) (domain or fragment)”, the Kd [6] is reported as 16.5 µM.

“T cadherin EC1-2 I2A (domain or fragment)” gave a Kd [7] of 37.1 µM.

“T cadherin EC1-2 R14E/D140K (charge reversal rescue mutant) (domain or fragment)” showed a Kd [8] of 149 µM.

With “T-cadherin EC1-2 R14S (domain or fragment)” the fold reduction of the binding level against wild type [9] was 5 fold.

“T-cadherin EC1-2 R14S D140S (domain or fragment)” showed a fold reduction of the binding level against wild type [9] greater than 5 fold.

B1: T-cadherin EC1-2 wild-type (domain or fragment, mouse)
chain: IVVSPILIPENQRQPFPRDVGKVVDSDRPEGSKFRLTGKGVDQDPKGTFRINENTGSVSVTRTLDRETIATYQLYVETTDASGKTLEGPVPLEVIVIDQNDNRPIFREGPYIGHVMEGSPTGTTVMRMTAFDADDPATDNALLRYNIRQQTPDKPSPNMFYIDPEKGDIVTVVSPALLDRETLENPKYELIIEAQDMAGLDVGLTGTATATIVIDD
With B1 the “stoichiometry N” value (AUC [10]) was 2 and the Kd (AUC [11]) was 41.4 ± 1.7 µM.
